What was measured:
[1] = target: T1, Recombinant human IL-2 (human, UniProt P60568 21-153); assay: Octet BLI, antibody immobilised on amine reactive sensors, IL-2 in solution
T1 construct: also called hIL-2; recombinant IL-2 (Acro Biosystems, IL2-H4113)
Procedure: (§1) Antibody A, B or C were immobilized on amine reactive (2nd Generation) sensors (ForteBio, 18-5092). Association (600s) and dissociation (900s) of a dilution series of recombinant IL-2 (Acro Biosystems, IL2-H4113) were measured on the antibody-coated biosensors on an Octet-System (Octet RED, ForteBio). K_D values were obtained by fitting the kinetics data with the ForteBio Data Analysis Software (8.2).

[2] = target: T1, Recombinant human IL-2; assay: ELISA, recombinant human IL-2 coated, antibody titrated, anti-human IgG-Peroxidase
Procedure: Recombinant human IL-2 was coated on Maxisorp ELISA plates (Invitrogen, 44-2404-21) at 5 µg/ml, 4° C. over night. After 2 hours blocking, antibodies A, B and C were incubated in a serial dilution starting from 10 µg/ml in assay buffer. The antibodies were detected with anti-human IgG-Peroxidase (Sigma, A0170). After addition and blockade of the […] substrate, absorption was read ($A450$-$A570$ at plate reader, Spectramax iD3). $EC50$ values were obtained by plotting Absorbance vs. log(Concentration).

[3] = target: T1, Recombinant human IL-2; assay: Octet BLI, antibody immobilised on amine reactive sensors, IL-2 in solution; Octet, free antibody B against recombinant hIL-2: weak binding, KD 269.8 nM
Procedure: as §1

T1 sequence (P60568 21-153 limits assumed): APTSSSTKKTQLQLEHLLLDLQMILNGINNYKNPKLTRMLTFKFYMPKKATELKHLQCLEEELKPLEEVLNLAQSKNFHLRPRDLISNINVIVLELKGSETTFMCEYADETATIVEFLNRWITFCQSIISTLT

| Binder | Kd [1] [nM] | EC50 [2] [nM] | Kd [3] [nM] |
| --- | --- | --- | --- |
| Antibody C (antibody, human IgG1, kappa, V domains shown, Control antibody, full-length human IgG1 kappa) VH: EVQLVQSGAEVKKPGESLKISCKGSGYSFTNFYIHWVRQAPGQRLEWMGSIYPNYGDTAYNQKFKDRFVFSLDTSVSTAYLQISSLKAEDTAVYYCARGYSYAMDYWGQGTTVTVSS VL: DIQMTQSPSSVSASVGDRVTITCSASQGISGDLNWYQQKPGKAPKLLIYHTSSLHSGVPSRFSGSGSGTDFTLTISSLQPEDFATYYCQYYSKDLLTFGGGTKLEIKR | > 1000 | – | – |
| Antibody A (antibody, human IgG1, kappa, N297A, V domains shown, Humanized full-length human IgG1 kappa; The printed heavy chain carries the N297A Fc) VH: EVQLVQSGAEVKKPGESLKISCKGSGYAFTNYLIEWVRQMPGKGLEWMGVINPGSGGTNYNEKFKGQVTISADKSISTAYLQWSSLKASDTAMYYCARWRGEGYYAYFDVWGQGTTVTVSS VL: AIRLTQSPSSFSASTGDRVTITCKASQSVDYQGDSYMNWYQQKPGKAPKLLIYAASNLESGVPSRFSGSGSGTDFTLTISSLQSEDFATYYCQQSNEDPYTFGGGTKVEIKR | 2.1 | 0.37 | – |
| Antibody B (antibody, human IgG1, kappa, V domains shown, Full-length human IgG1 kappa) VH: QVQLVESGGGVVQPGRSLRLSCAASGYTFSSYLIEWVRQAPGKGLEWVAVINPGSGGTNYADSVKGRFTISADKSKNTAYLQMNSLRAEDTAVYYCARWRGDGYYAYFDVWGQGTTVTVSS VL: EIVLTQSPATLSVSPGERATLSCRASQSVSYDGDSYMNWYQQKPGQAPRLLIYAASNLASGIPARFSGSGSGTEFTLTISSLQSEDAAVYYCQQSNEDPYTFGGGTKVEIKR | – | – | 270 |

Source: patent US11773160 (ANAVEON, dated 2023)
